Data as given in article PMC8131599 (2021).

Experiments:
[1] = molecular target: T1, EV-D68 mature virion, strain US/MO/14-18947 (clade B) (enterovirus D68 strain US/MO/14-18947); assay: BLI
T1 chain 1: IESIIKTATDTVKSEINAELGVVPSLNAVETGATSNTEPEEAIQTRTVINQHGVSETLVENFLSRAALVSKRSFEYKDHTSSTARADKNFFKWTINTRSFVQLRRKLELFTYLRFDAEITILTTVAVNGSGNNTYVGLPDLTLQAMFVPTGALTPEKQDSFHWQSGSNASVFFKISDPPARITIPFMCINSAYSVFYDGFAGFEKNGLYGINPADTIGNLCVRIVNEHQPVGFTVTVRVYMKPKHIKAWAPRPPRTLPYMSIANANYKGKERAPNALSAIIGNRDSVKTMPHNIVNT
T1 chain 2: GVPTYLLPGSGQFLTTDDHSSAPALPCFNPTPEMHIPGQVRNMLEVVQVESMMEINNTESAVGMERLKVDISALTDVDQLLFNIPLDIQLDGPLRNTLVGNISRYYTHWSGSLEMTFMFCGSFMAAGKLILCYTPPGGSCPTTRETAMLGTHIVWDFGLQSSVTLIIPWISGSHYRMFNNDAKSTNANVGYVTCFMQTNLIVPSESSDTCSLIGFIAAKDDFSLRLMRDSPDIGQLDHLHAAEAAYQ
T1 chain 3: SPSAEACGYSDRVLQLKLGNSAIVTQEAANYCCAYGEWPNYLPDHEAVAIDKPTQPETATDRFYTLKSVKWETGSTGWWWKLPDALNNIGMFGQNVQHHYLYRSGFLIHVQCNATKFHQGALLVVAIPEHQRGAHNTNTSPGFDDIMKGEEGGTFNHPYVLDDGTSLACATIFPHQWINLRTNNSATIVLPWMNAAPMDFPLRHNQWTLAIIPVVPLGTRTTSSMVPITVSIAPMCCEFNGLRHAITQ
T1 chain 4: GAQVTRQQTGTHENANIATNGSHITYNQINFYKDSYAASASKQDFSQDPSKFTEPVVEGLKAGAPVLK

[2] = molecular target: T1, EV-D68 mature virion, strain …; assay: BLI

B1: human-mouse chimeric MAb 8F12 (antibody, V domains shown)
VH: QVQLQQPGTELVRPGASVKLSCKASGYSFTSYWMNWVKQRPGQGLEWIGMIHPSDSETRLNQRFKDKATLTVDKSSNTAYMQLSSPTSEDSAVYYCAREGYDYDGFAYWGQGTLVTVSA
VL: QIVLTQSPAAMSASPGEKVTMTCSASSSVIYMYWYQQKPGSSPRLLIYDTSNLASGVPVRFSGSGSGTSYSLTISRMEAEDAATYYCQQWSSFPYTFGGGTKLEIK
koff [1]: 0.0044 s⁻¹

B2: human-mouse chimeric MAb 2H12 (antibody, V domains shown)
VH: QVQLQQPGAELVMPGASVKMSCKASGYTFTDYWMHWVKQRPGQGLEWIGAIDTSDSYTTYNRKFKGKATLTVDESSSTAYMQLISLTSEDSAVYYCARGGGGNSPFAYWGQGTLVTVSA
VL: DIQMTQSPSSLSASLGERVSLTCRASQDIGSSLNWLQQEPDGTIKRLIYATSSLDSGVPKRFSGSRSGSDYSLTISSLESEDFVDYYCLQYASFPLTFGAGTKLELK
koff [1]: 0.00055 s⁻¹ | Kd [2]: 2.9 nM
